In patent US20140056907A1 (Regeneron, published 2014):

T1: mouse ASIC1a (mouse, UniProt Q6NXK8 1-526)
T1 construct: whole, on cells; Expressed on stably transfected 3T3 cells (3T3/mASIC1a); also called mASIC1a
T1 sequence (looked up): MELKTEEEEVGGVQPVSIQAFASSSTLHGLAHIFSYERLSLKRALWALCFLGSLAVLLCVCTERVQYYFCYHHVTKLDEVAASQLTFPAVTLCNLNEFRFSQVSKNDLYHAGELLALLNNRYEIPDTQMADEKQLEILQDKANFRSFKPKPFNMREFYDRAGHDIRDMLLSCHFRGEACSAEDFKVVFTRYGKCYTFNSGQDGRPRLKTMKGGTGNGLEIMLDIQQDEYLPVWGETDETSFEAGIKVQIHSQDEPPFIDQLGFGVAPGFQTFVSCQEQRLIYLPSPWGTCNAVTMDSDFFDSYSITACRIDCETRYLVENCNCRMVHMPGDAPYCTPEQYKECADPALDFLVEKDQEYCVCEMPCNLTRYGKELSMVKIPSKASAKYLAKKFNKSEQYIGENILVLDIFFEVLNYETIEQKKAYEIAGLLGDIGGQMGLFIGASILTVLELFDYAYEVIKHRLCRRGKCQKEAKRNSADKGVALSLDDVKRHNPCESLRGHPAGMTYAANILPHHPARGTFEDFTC

B1: H3M6726N (antibody, V domains shown)
VH: EVQLLESGGVLVQPGGSLRLSCAASGFNFNNYDMSWVRQAPGKGLEWVSVISASGRNTYYADSVKGRFTISRDNSKISLYLQMNSLRPEDTAVYYCAKDHLVHYYYGMDVWGQGTTVTVSS
VL: DIMMTQSPLSLSVTPGEPASISCRSSQSLLHSNGYNYLDWYLQKSGQSPHLLIYLGSNRASGVPDRFSGSGSGTDFTLKISRVEAEDGGVYYCMQALQTPRTFGQGTKVEIK
notes: Chimeric: human variable, mouse constant domains; H3M prefix marks the Fc, isotype not spelled out
B2: H3M7102N (antibody, V domains shown)
VH: EVQLLASGGGLVQPGGSLRLSCAASGFTFSSFAMSWVRQAPGKGLEWVSGISGSGGSTYYADSVKGRFTISRDNSKNTLYLQMNSLRAEDTAAYYCAKEAYKWQPWGQGIRVTVSS
VL: DIQMTQSPSTLSASVGDRVSITCRASQSISSWLAWYQQKPGKAPKLLIYKASNLDSGVPSRFSGSGSGTDFTLTISSLQPDDFATYYCQQYNSYSYTFGQGTKLEIK
notes: as for B1

Molecular target: T1, mouse ASIC1a
Assay: FACS, 3T3/mASIC1a cells
Description: To further characterize anti-ASIC1 antibodies, their ability to bind either (a) a mouse fibroblast 3T3 cell line stably transfected to overexpress full length human ASIC1 (3T3/hASIC1; amino acids 1-528 of NCBI accession number NP_{—}001086.2 [SEQ ID NO:401]), (b) a 3T3 cell line stably transfected to over express full length mouse ASIC1a (3T3/mASIC1a; amino acids 1-526 of NCBI accession number NP_{—}033727), or (c) a ND7 cell line (ECACC, #92090903) that is a fusion cell line of mouse neuroblastoma and rat dorsal root ganglia that endogenously expresses rat ASIC1, was determined using flow cytometry (FACS). ND7 cells were differentiated by replacing the culture media with low-serum media (0.5% FBS) containing 1 mM dibutyryl-cAMP (Cat. No. sc-201567A, Santa Cruz Biotechnology, Inc., Santa Cruz, Calif.). FACS binding was tested for some antibodies on both undifferentiated ND7 cells and differentiated ND7 cells.
To perform the FACS binding experiments, adherent cells were collected using 1 mM EDTA in PBS, then washed, and re-suspended in cold PBS containing 5% FBS. For each binding experiment, each anti-ASIC1 antibody (at final concentrations of 10 nM of purified antibodies or 3.3 nM for antibody supernatants for binding to 3T3/hASIC1 cells and 5 nM for binding to 3T3/mASIC1a or ND7 cells) was added to 250,000 cells in 500 μL of PBS with 5% FBS. After incubation for 20 minutes at room temperature, a secondary antibody which recognizes human Fc (Cat. No. 109-136-098, Jackson ImmunoResearch Laboratories, Inc., West Grove, Pa.) or mouse Fc (Cat. No. 550826, BD Biosciences, San Jose, Calif.) and is conjugated to allophycocyanin, was then added to the cell mixture at a final concentration of 13.3 nM. After incubating for 20 minutes on ice, the cells were washed and resuspended in PBS containing 5% FBS, then sorted and analyzed on a flow cytometer (FACSCalibur, BD Biosciences, San Jose, Calif.) to determine relative binding by the candidate antibodies to the tested cell lines. Histograms of cells stained with anti-ASIC1 antibodies were compared with those of cells stained with secondary antibody alone. Percentage of ASIC1 signal over secondary antibody alone was calculated using FlowJo software (Tree Star, Ashland, Oreg.).

Binder | binding result
B1 | binds
B2 | binds
